This note sets out measurements from the supplement of paper PMC12042874.

The data set is described as follows: amyloid nucleation score (Sup35N fusion, yeast selection) (log enrichment); library NNK3; higher = more nucleation; inactive = no reads after selection. Summed up: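 Sup35N fusions to peptides of 20 random codons were expressed in psi-negative yeast, induced 24 hours with 100 μM copper sulfate, and grown 7 days at 30°C on medium lacking adenine and uracil. Input and output plasmid inserts were sequenced by Illumina. The nucleation score is the DiMSum log enrichment of output over input reads, centred on the mode score of non-aggregating sequences. Sequences with under 100 input reads were excluded.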

± gives the uncertainty stated by the source.

On to LQHVIFSYLLVGASSFRFHP, for which the amyloid nucleation score entry is “inactive”.
The entry for RLGNTGMCV is “inactive”.
The entry for FGRVNCSSNYRNKMISSTRW is “inactive”; for LQANAI it is “inactive”.
With CLEPNILVLIMEFVY the entry was “inactive”.
Consider VVHKNRLMKFHRFLILYSEG, for which the amyloid nucleation score entry is “inactive”.
With AEALCQFIYCFAASKLTGVC the entry was “inactive”.
With YNFGVMVWTSDF, the amyloid nucleation score stood at 2 ± 0.073.
The entry for TEYRYVLSISCH is “inactive”; for VVKYSSRCSKVRICLSRWVW it is “inactive”; for VLDRVKNRVFYLLVECQKLF it is “inactive”.
Turning to NLPHRLVTNRMCGAGGFGII, the amyloid nucleation score result was “inactive”.
With VRTNPGGFWLNLCQQTQKES, the amyloid nucleation score result is “inactive”.
With PNQYWQ the entry was “inactive”; with PCRPGRSRVVHS, 0.614 ± 0.27.
For QDEPTMNVQ, the amyloid nucleation score result is “inactive”.
The entry for WECRDETSCARVVFTGLFR is “inactive”; for HLLRCYMFIVDEVCWSVVAR it is “inactive”; for MRTMISYMVRVVRTHTCFLD it is “inactive”.
The entry for ATDCLCEQRPVFPNKVKWQS is “inactive”.
The entry for VITGLIMMLNCIGFVFRGLA is “inactive”; for PAQLHNTVHL it is “inactive”; for ANIFGVNTFGESRKHSIARC it is “inactive”.
IAVVTSNWVADLSPGNHTCM showed an amyloid nucleation score of -0.49 ± 0.96.
With KSHPINIRPFKYIPKMLASS the entry was “inactive”.
With VYDLVT the entry was “inactive”.
The entry for KGFNSALLMWVLYINKQ is “inactive”; for YRLYDQLRGYRGLAYLTYVL it is -0.187 ± 0.69.
Consider AREYMI, for which the amyloid nucleation score entry is “inactive”.
As to YFGFYSLWYKYYVTSISRSL, the amyloid nucleation score entry is “inactive”.
Regarding WIRVDRCGCARVPLGDHVKK, the amyloid nucleation score entry was “inactive”.
Take CPCMLMMFSVGLTSSSPILC: the amyloid nucleation score was found to be 0.268 ± 0.44.
The entry for YCVLVIFVGFCFMEFENVTQ is “inactive”; for EGHHPVGGGLLIFASLT it is “inactive”; for WGSGY it is “inactive”.
With DRYMRLCVFGYKYVSYG the entry was “inactive”; with ACSNWMRLMLVWNSTRNRVV, “inactive”.
Turning to IYLLYNPCFRMRYLFCMLRG, the amyloid nucleation score entry was “inactive”.
Consider MTFTCFVRFPTVRYNAKGCL, for which the amyloid nucleation score entry is “inactive”.
In the case of LNWLITYLGKR, the amyloid nucleation score was determined as 2.24 ± 0.092.
Consider CRCRFLAVWWNSVGYNDGVG, for which the amyloid nucleation score result was “inactive”.
With VGCLGGRSTSSRWSSLRLLV the entry was “inactive”.
For AMKSAW, the amyloid nucleation score entry is “inactive”.
Take LKARYYNYIASERSGCEFHK: the amyloid nucleation score entry was “inactive”.
Take RCFFNRMRTDVYSVDSKVSF: the amyloid nucleation score entry was “inactive”.
Turning to NCYNQYRSSWRLTCCLF, the amyloid nucleation score came to 3.34 ± 0.064.
LSYLC: the amyloid nucleation score result is “inactive”.
As to QRGVLL, the amyloid nucleation score result was “inactive”.
Turning to WGFRWNKCLNLAQPWLMALS, the amyloid nucleation score entry was “inactive”.
As to PSQHMRSARRQVGKSTSNEG, the amyloid nucleation score result was “inactive”.
With LFAYRWGIYFRLKVEYFVDS the entry was “inactive”; with CFDLVCTLCFLFRLARVVEW, “inactive”; with SSLGWFQVSHFRYWNRRCGL, “inactive”.
The figure for CLKTFVFMTDTRG is 1.47 ± 0.12; for VCKLVTYSYLLVREPRSADS it is “inactive”; for NIIKSTVIY it is “inactive”.
With CLYLYVRLRYSLVSSSHPFL the entry was “inactive”.
Consider VLILFVCPNFVLGSGVLIGW, for which the amyloid nucleation score result was “inactive”.
Take STLGTRSRDFLMIFSNRSTE: the amyloid nucleation score result was “inactive”.
Take ASGSFKPFFSVEWYLS: the amyloid nucleation score result is “inactive”.
Turning to VFRAGWPVWALDYELYSVRA, the amyloid nucleation score entry is “inactive”.
Consider LHFGDMLLVCNTFFELRVLH, for which the amyloid nucleation score came out at 1.73 ± 0.08.
GVQAITGPLSVQDVYRWAKP: the amyloid nucleation score entry was “inactive”.
With LFSTMFDTIENYNIGCTCGF the figure was 2.01 ± 0.053; with TGEQECLKQMSISGNRIFVV, “inactive”.
With TWAWPGRYYQWLQLQLGLNK the entry was “inactive”; with RLNIYLWGVGLTRDVIYPPS, 1.66 ± 0.1.
In turn, FKRHMTINLQRGITLIGIDM came in with an amyloid nucleation score of 1.93 ± 0.062.
Turning to YKSRGMVYDYFGKMIYHLSG, the amyloid nucleation score is 0.63 ± 0.13.
As to RLFKSGEFDFCYIRGHCCSV, the amyloid nucleation score result was “inactive”.
IVGLDLCVHWQYLQVRLYII: the amyloid nucleation score entry is “inactive”.
Turning to VESRRRLRVEVGFSRVDT, the amyloid nucleation score was 0.077 ± 0.79.
With RTYHSLVSSEERRWKLKHCY the entry was “inactive”; with LSSFLLFLAELCWVLKQRMC, “inactive”.
Turning to GTDSGTRSDNV, the amyloid nucleation score was 0.328 ± 0.63.
The entry for VFTYCYVFHQVVSLRQARLR is “inactive”; for VPSPTFIHVARRSRYHYASR it is “inactive”.
With YCCDLYLN the entry was “inactive”; with SFGLWTGFGVMYVRIVDVTH, “inactive”.
For DVNHVMNMNIGSNRN, the amyloid nucleation score result was “inactive”.
The entry for ESKMGCP is “inactive”; for IWPVESWLWHVLWYLVFKI it is 0.49 ± 0.17.
With EQMWFEVCYGCRSCSEALLR the entry was “inactive”; with PWKLYYNFQVLLLNAGHLML, “inactive”.
With VKVES the figure was -0.195 ± 1.1.
For SPRVSMYMSSQKGLEPWESV, the amyloid nucleation score result is “inactive”.
The entry for GNYIITLY is “inactive”; for YVSGKSSYIIF it is 0.116 ± 0.71.
With MFIMVRRRLT the entry was “inactive”.
The figure for HKGFVSKIGNN is -0.4 ± 0.9; for RVVNRFRNCWK it is 0.717 ± 0.19.
IFVLQGRKYSSTSWLITHHC: the amyloid nucleation score entry is “inactive”.
The entry for EAPFDHPLYLRDLY is “inactive”; for RCVIALMLYVILGMNGWKAS it is “inactive”; for IIVTL it is “inactive”.
The entry for YTLAC is “inactive”.
SCVVFGSQTLRVVFFDRVSS gave an amyloid nucleation score of 0.184 ± 0.32.
Regarding IHILFGTSWLMTRLFCLVK, the amyloid nucleation score result was “inactive”.
For YIASLLDYFCMQEDQAYFDY, the amyloid nucleation score result was “inactive”.
With SYLSHNFNGECCTSLLMDNL the entry was “inactive”; with FSMLWILSDYLSYSCNLVFY, “inactive”.
With VSDCESMAN the entry was “inactive”.
The figure for LNACSGFTFLFNRVVIKVIL is -0.42 ± 0.8; for INMNDSINGS it is 0.231 ± 0.62; for FLNLNNMGLSYMAVSLVEG it is “inactive”.
For NVNGSFKI, the amyloid nucleation score entry was “inactive”.
The entry for LDVKQSSRSLREAVDVFNNH is “inactive”; for TSIMSKGGGSYLSWNWHGWL it is “inactive”.
As to LEMGSGSHFSGDSWAHPLRG, the amyloid nucleation score result was “inactive”.
The figure for WLWKVSFK is 1.41 ± 0.093.
In the case of GSCCNQG, the amyloid nucleation score result is “inactive”.
On to MMLLGVRVED, for which the amyloid nucleation score result is “inactive”.
Regarding DSGKDKF, the amyloid nucleation score result is “inactive”.
As for YARWDRSKYMTRYCHCCYFL, the amyloid nucleation score entry is “inactive”.
The entry for SIFIFYRYVFWRFMCDAVFS is “inactive”; for SFFKNGGELVMSCVSVSPDI it is “inactive”; for GLYSLYLFGTLYRQAQRGCE it is 0.52 ± 0.21.
Take RYVIV: the amyloid nucleation score result was “inactive”.
The entry for TYSGRSKSILTGSID is “inactive”.
For the substance HCPVSIY, the amyloid nucleation score result was “inactive”.
Regarding YWRFAMYQCIQFSRR, the amyloid nucleation score entry is “inactive”.
Turning to FLKLSLDIMFPYQIVYMPTT, the amyloid nucleation score result is “inactive”.
With LYFACPTLYLFRRRVNVTHP the entry was “inactive”; with DHVLNRPYYDNNLKYYDTWL, “inactive”.
In the case of NVMSLSMWSSLSLWYSGLS, the amyloid nucleation score entry was “inactive”.
For the substance AMCCF, the amyloid nucleation score result was “inactive”.
Consider IASSSWHVMIWYSPRSCVFS, for which the amyloid nucleation score result was “inactive”.
For the substance FCHRYEMYIELTYTEGA, the amyloid nucleation score result is “inactive”.
The entry for SKPLYNSWIPMCLLFKVPPF is “inactive”.
The entry for RCFSRRSCCGSVVWTVRVRH is “inactive”.
On to FVSSVASFVSHKLVMKLSAM, for which the amyloid nucleation score entry is “inactive”.
With FSRYDRDLKGSLSGRSYFSA, the amyloid nucleation score entry is “inactive”.
